# Reference: paper PMC9116394, “Triple-negative and triple-positive breast cancer cells reciprocally control their growth and migration via the S100A4 pathway” (Cell Adhesion & Migration, 2022)
# Molecular target: the molecule itself
# Test: western blot of cell extracts; extracts of TNBC (MDA-MB-231) cells incubated in TPBC-medium, TNBC-medium or S-medium; detected with a polyclonal antibody to S100A4; gel conditions not stated
protein,measurement,value
"S100A4 protein (natural protein, S100A4 (Mts1), endogenous in the human triple-negative breast carcinoma cell line MDA-MB-231; Monomeric, dimeric and tetrameric forms were told apart as bands on a western blot of cell extracts; also called Mts1; source: endogenous, MDA-MB-231 (TNBC) cell extract) not shown",stoichiometry N,4
